From article PMC5586147 (Nature, 2017)

Biological target: human pro-TGF-β1 (C4S, R249A furin-site mutant, N107Q, N147Q), purified (human)
Test: crystal structure

B1: integrin αVβ6 head (three-domain fragment: αV β-propeller and thigh domains, β6 βI domain) (complex)
chain 1: FNLDVDSPAEYSGPEGSYFGFAVDFFVPSASSRMFLLVGAPKANTTQPGIVEGGQVLKCDWSSTRRCQPIEFDATGNRDYAKDDPLEFKSHQWFGASVRSKQDKILACAPLYHWRTEMKQEREPVGTCFLQDGTKTVEYAPCRSQDIDADGQGFCQGGFSIDFTKADRVLLGGPGSFYWQGQLISDQVAEIVSKYDPNVYSIKYNNQLATRTAQAIFDDSYLGYSVAVGDFNGDGIDDFVSGVPRAARTLGMVYIYDGKNMSSLYNFTGEQMAAYFGFSVAATDINGDDYADVFIGAPLFMDRGSDGKLQEVGQVSVSLQRASGDFQTTKLNGFEVFARFGSAIAPLGDLDQDGFNDIAIAAPYGGEDKKGIVYIFNGRSTGLNAVPSQILEGQWAARSGCPPSFGYSMKGATDIDKNGYPDLIVGAFGVDRAILYRARPVITVNAGLEVYPSILNQDNKTCSLPGTALKVSCFNVRFCLKADGKGVLPRKLNFQVELLLDKLKQKGAIRRALFLYSRSPSHSKNMTISRGGLMQCEELIAYLRDESEFRDKLTPITIFMEYRLDYRTAADTTGLQPILNQFTPANISRQAHILLD
chain 2: TEDYPVDLYYLMDLSASMDDDLNTIKELGSRLSKEMSKLTSNFRLGFGSFVEKPVSPFVKTTPEEIANPCSSIPYFCLPTFGFKHILPLTNDAERFNEIVKNQKISANIDTPEGGFDAIMQAAVCKEKIGWRNDSLHLLVFVSDADSHFGMDSKLAGIVCPNDGLCHLDSKNEYSMSTVLEYPTIGQLIDKLVQNNVLLIFAVTQEQVHLYENYAKLIPGATVGLLQKDSGNILQLIISAYEELRSEVELE
- stoichiometry N: 1 αVβ6 head per pro-TGF-β1 dimer
